Laboratory results reported in US20080125364A1, “Methods and Compositions for Treating Epithelial Cancers” (priority 2004, published 2008).

B1: Occ: full-length human occludin with C-terminal myc-tag, stably expressed in Raf1-transformed Pa4 cells (protein, UniProt Q16625 1-522, looked up)
chain: MSSRPLESPPPYRPDEFKPNHYAPSNDIYGGEMHVRPMLSQPAYSFYPEDEILHFYKWTSPPGVIRILSMLIIVMCIAIFACVASTLAWDRGYGTSLLGGSVGYPYGGSGFGSYGSGYGYGYGYGYGYGGYTDPRAAKGFMLAMAAFCFIAALVIFVTSVIRSEMSRTRRYYLSVIIVSAILGIMVFIATIVYIMGVNPTAQSSGSLYGSQIYALCNQFYTPAATGLYVDQYLYHYCVVDPQEAIAIVLGFMIIVAFALIIFFAVKTRRKMDRYDKSNILWDKEHIYDEQPPNVEEWVKNVSAGTQDVPSPPSDYVERVDSPMAYSSNGKVNDKRFYPESSYKSTPVPEVVQELPLTSPVDDFRQPRYSSGGNFETPSKRAPAKGRAGRSKRTEQDHYETDYTTGGESCDELEEDWIREYPPITSDQQRQLYKRNFDTGLQEYKSLQSELDEINKELSRLDKELDDYREESEEYMAAADEYNRLKQVKGSADYKSKKNHCKQLKSKLSHIKKMVGDYDRQKT
modifications: full-length C-terminal myc-tag
notes: full-length human occludin with C-terminal myc-tag, stably expressed in Raf1-transformed Pa4 cells
B2: claudin-1: tight junction protein claudin-1 force-expressed in Pa4-Raf1 cells (protein, UniProt O95832 1-211, looked up)
Claudin-1: MANAGLQLLGFILAFLGWIGAIVSTALPQWRIYSYAGDNIVTAQAMYEGLWMSCVSQSTGQIQCKVFDSLLNLSSTLQATRALMVVGILLGVIAIFVATVGMKCMKCLEDDEVQKMRMAVIGGAIFLLAGLAILVATAWYGNRIVQEFYDPMTPVNARYEFGQALFTGWAAASLCLLGGALLCCSCPRKTTSYPTPRPYPKPAPSSGKDYV

Legend:
Pa4-Raf1 cells [1] = test: Transepithelial electrical resistance (TER) of monolayers on filter supports; type: cell-based, rat; settings: Pa4-Raf1 cells expressing the construct, after 5 days of culture on semi-permeable filter supports
Experimental: (§1) For transepithelial electrical resistance (TER) measurements, cells were plated on polycarbonate filters with a pore size of 0.4 μm. A Millicell-ERS volt-ohm meter (Millipore) was used to determine the TER value. All TER values were normalized for the area of the filter and were obtained by subtracting the contribution of the filter and bathing solution. Paracellular permeability to fluoresceinated dextran (FD-3; MW 3000) was assessed according to previously published methods (Sanders et al., 1995). Briefly, cells were grown on polycarbonate filters with a pore size of 0.4 μm. TER was measured and then cells were washed in Hanks balanced salt solution/10 mM HEPES (HBSS^+) and equilibrated at 37° C. for 10 min on an orbital shaker. Cells were loaded apically with 1 mg/ml FD-3 (Molecular Probes) at time=0. Basolateral samples were taken at t=0, 30, 60, 90 and 120 minutes, and fluorescence intensity was analyzed on a CytoFluor 2350 Fluorescence Measurement System (Millipore, Cambridge, Mass.). FD-3 concentrations transported were extrapolated from a standard curve (generated by diluting known concentrations of fluorescent tracer) and expressed as ng FD-3 transported/cm^2/hour. Numerical values from individual experiments were pooled and expressed as mean ±standard error of the mean. Data shown are representative of at least three experiments.

Pa4-Raf1 cells [2] = test: Paracellular permeability to FD-3 (3 kDa FITC-dextran); type: cell-based, rat; settings: Pa4-Raf1 cells expressing the construct
Experimental: as §1

Pa4-Raf1 cells [3] = test: Cloning efficiency (anchorage-independent growth) in soft agarose; type: cell-based, rat; settings: Pa4-Raf1 cells expressing the construct, 4 weeks, colonies >0.4 mm counted
Experimental: Pa4 cells, Pa4-Raf1 cells and Pa4-Raf1 cells expressing full-length occludin or various occludin mutants were seeded a density of 1×10^4 cells per 35-mm culture dish in 1 ml of 0.35% (wt/vol) low melting point agarose solution diluted with complete medium. Dishes were coated with 1 ml of 0.7% (wt/vol) low melting point agarose before cell plating, and 1 ml of overlay medium was added after cell plating. The dishes were incubated at 35° C. in 5% CC>2 and 95% air for 4 weeks. The overlay medium was changed every 3 days. After 4 weeks, the cells were stained with 3-[4,5-dimethylthiazol-2-yl]-2,5-diphenyltetrazolium bromide (MTT; 0.05 mg/ml). The stained dishes were photographed, and colonies >0.4 mm in diameter were counted and analyzed.

Pa4-Raf1 cells [4] = test: Tumorigenicity in nude mice; type: in vivo; settings: Pa4-Raf1 cells expressing the construct, injected subcutaneously, 6 weeks post injection
Experimental: The nude mice were used to assay tumorigenicity in vivo. Pa4 cells, Pa4-Raf1 cells and Pa4-Raf1 cells expressing fall-length occludin or various occludin mutants were grown to logarithmic growth phase, harvested, washed, and resuspended in PBS for injection. Each of the cell lines (1×10^6 cells in 200 μl PBS) was injected subcutaneously into the flanks of four male nude mice. Tumor formation was monitored daily. All nude mice were sacrificed at six weeks, with tumors being isolated and analyzed.

Pa4-Raf1 cells [5] = test: Phase contrast and immunofluorescence microscopy of cell morphology and junctional proteins; type: cell-based, rat; settings: Pa4-Raf1 cells expressing the construct, grown on plastic
Experimental: Cells grown on glass coverslips or on polycarbonate filters (NK, Costar, Cambridge, Mass., US) with a pore size of 0.4 μm were rinsed with HBSS containing calcium and magnesium (HBSS^+). Cells were fixed and permeabilized in absolute methanol for 20 min at −20° C., followed by blocking in HBSS^+ containing 5% normal goat serum (blocking buffer) for 1 h at room temperature and incubation for 60 min with primary antibodies to human occludin, claudin-1, and ZO-1, (Zymed Laboratories, San Francisco, Calif.), E-cadherin (BD Biosciences) in blocking buffer. Cells were then washed, incubated for 60 min with Alexa dye-conjugated secondary antibodies (Molecular Probes, Eugene, Oreg.), followed by rinsing and mounting on slides with PROLONG ANTIFADE medium (Molecular Probes). For double labeling of junctional proteins, cells were fixed and permeabilized in absolute methanol and blocked in blocking buffer. Cells were sequentially stained with two primary antibodies. Donkey anti-goat and anti-rabbit antibodies conjugated to fluorescent red or green Alexa dyes (Molecular Probes) were used for detection of the respective primary antibodies. Stained cells were scanned using a Zeiss LSM510 laser scanning confocal microscope (Zeiss Microimaging Inc., Thornwood, N.Y.) coupled to a Zeiss 100M axiovert and 40× or 63× Pan-Apochromat oil lenses. […]

Pa4-Raf1 cells [6] = test: Oligonucleotide microarray comparison of mRNA abundance; type: cell-based, rat; settings: for correction of Raf1-driven gene expression changes (mRNA abundance): forced expression in Pa4-Raf1 cells
Source text: Based upon internal quality control data, differential expression values greater than 1.5 obtained with Agilent Oligonucleotide microarrays are likely to be significant. Using this benchmark, we compared microarray data for entire rat genome obtained from Pa-4 cells before and after stable transfection with constitutively active Raf1 (Pa4-Raf1). […] Genes affected by active Raf1 in Pa4 cells included transcription factors, response elements, regulatory molecules, growth factor receptors, cell-cell contact proteins, and cytoskeletal elements that were consistent with those identified in other studies examining epithelial cell gene modulation associated with Ras/Raf/MAP kinase pathway activation. The strongest mRNA abundance profile shifts occurred in genes associated with cell polarity, proliferation and sensitivity to apoptotic stimuli. Numerous genes identified by the present studies have been previously reported as being targets of cell regulation in other cancer cell microarray studies.

Molecule	transepithelial electrical resistance (TER) (Pa4-Raf1 cells [1]) [O-cm^2]	FD-3 flux rate (Pa4-Raf1 cells [2])	average number of colonies on soft agarose (Pa4-Raf1 cells [3]) [colonies]	tumor formation (Pa4-Raf1 cells [4])	rescue of epithelial cell morphology (Pa4-Raf1 cells [5])	rescue of epithelial cell morphology (Pa4-Raf1 cells [5]; listed as full-length occludin)	growth factor binding protein mRNA up-regulation (Pa4-Raf1 cells [6]; Pa4 Raf1 cells, forced occludin expression) [fold]	aquaporin-1 mRNA levels (Pa4-Raf1 cells [6]; Raf1-induced nearly 4-fold increase)	correction of Raf1-driven gene expression changes (mRNA abundance) (Pa4-Raf1 cells [6])	correction of Raf1 gene modifications of Table 1 (Pa4-Raf1 cells [6]; genes of Table 1)	REX-3 mRNA abundance (Pa4-Raf1 cells [6]; up-regulated 37-fold by Raf1)
B1	> 900	−1,500 ng/cm^2/hr	5	failed to produce tumors	recovered epithelial morphology	tightly clustered colonies	35	corrected	remarkable reversal of essentially all of the genomic changes	corrected	down-regulated by occludin to an equivalent extent
B2	–	–	–	–	–	–	–	–	fails to affect correction of gene modifications	–	–
